Test results as given in publication PMC7272049 (2020).

Legend:
Experiment in all cases: FACS
mPD-L1 D122A mCherry = mPD-L1 D122A mCherry (mouse, UniProt Q9EP73 19-290, D122A)
mPD-L1 Y123R mCherry = mPD-L1 Y123R mCherry (mouse, UniProt Q9EP73 19-290, Y123R)
mPD-L1 K124A mCherry = mPD-L1 K124A mCherry (mouse, UniProt Q9EP73 19-290, K124A)
mPD-L1 R125A mCherry = mPD-L1 R125A mCherry (mouse, UniProt Q9EP73 19-290, R125A)
D28R = D28R (Mus musculus)
mPD-L1 Y56A mCherry = mPD-L1 Y56A mCherry (mouse, UniProt Q9EP73 19-290, Y56A)
mPD-L1 D49R mCherry = mPD-L1 D49R mCherry (mouse, UniProt Q9EP73 19-290, D49R)
WT mPD-L1 mCherry = WT mPD-L1 mCherry (mouse, UniProt Q9EP73 19-290)
mPD-L1 G120D mCherry = mPD-L1 G120D mCherry (mouse, UniProt Q9EP73 19-290, G120D)
mPD-L1 G119D mCherry = mPD-L1 G119D mCherry (mouse, UniProt Q9EP73 19-290, G119D)
mPD-L1 G119D mCherry, sequence (Q9EP73 19-290 G119D): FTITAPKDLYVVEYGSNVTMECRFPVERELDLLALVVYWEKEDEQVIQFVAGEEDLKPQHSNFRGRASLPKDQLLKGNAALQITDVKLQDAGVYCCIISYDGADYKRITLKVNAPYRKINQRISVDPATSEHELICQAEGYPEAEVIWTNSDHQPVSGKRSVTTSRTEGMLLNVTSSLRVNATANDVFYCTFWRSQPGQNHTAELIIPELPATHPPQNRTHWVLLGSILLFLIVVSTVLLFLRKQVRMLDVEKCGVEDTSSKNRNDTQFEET

mPD-L1 K124A mCherry, sequence (Q9EP73 19-290 K124A): as the sequence (Q9EP73 19-290 G119D) above, with D101G, K106A counted along it
mPD-L1 R125A mCherry, sequence (Q9EP73 19-290 R125A): as the sequence (Q9EP73 19-290 G119D) above, with D101G, R107A counted along it
D28R (Mus musculus), sequence (chain, as listed by the source D28R): as the sequence (Q9EP73 19-290 G119D) above, with D8R, D101G counted along it
mPD-L1 Y123R mCherry, sequence (Q9EP73 19-290 Y123R): as the sequence (Q9EP73 19-290 G119D) above, with D101G, Y105R counted along it
mPD-L1 G120D mCherry, sequence (Q9EP73 19-290 G120D): as the sequence (Q9EP73 19-290 G119D) above, with D101G, G102D counted along it
mPD-L1 Y56A mCherry, sequence (Q9EP73 19-290 Y56A): as the sequence (Q9EP73 19-290 G119D) above, with Y38A, D101G counted along it
WT mPD-L1 mCherry, sequence (Q9EP73 19-290): as the sequence (Q9EP73 19-290 G119D) above, with D101G counted along it
mPD-L1 D122A mCherry, sequence (Q9EP73 19-290 D122A): as the sequence (Q9EP73 19-290 G119D) above, with D101G, D104A counted along it
mPD-L1 D49R mCherry, sequence (Q9EP73 19-290 D49R): as the sequence (Q9EP73 19-290 G119D) above, with D31R, D101G counted along it

B1: mB7-1 mIgG2a (Fc fusion)
chain: VDEQLSKSVKDKVLLPCRYNSPHEDESEDRIYWQKHDKVVLSVIAGKLKVWPEYKNRTLYDNTTYSLIILGLVLSDRGTYSCVVQKKERGTYEVKHLALVKLSIKADFSTPNITESGNPSADTKRITCFASGGFPKPRFSWLENGRELPGINTTISQDPESELYTISSQLDFNTTRNHTIKCLIKYGDAHVSEDFTWEKPPEDPPDSKN
EC50 (mPD-L1 D122A mCherry): 68.2 nM | EC50 (mPD-L1 Y123R mCherry): 7.7 nM | EC50 (mPD-L1 K124A mCherry): 54.9 nM | EC50 (mPD-L1 R125A mCherry): 20.2 nM

B2: mB7-1 mIgG2a (Fc fusion)
chain: B1 chain
modifications: Cell-surface full-length mPD-L1 with a C-terminal mCherry (left out); limits are not given, so the mature chain 19-290 is used. The paper prints D28R, but residue 28 of Q9EP73 is Tyr. The only nearby Asp is D26, which lies at the PD-1 interface, so D28R is read as D26R. The paper's other PD-L1 numbers match the precursor numbering.
EC50 (D28R): 18.8 nM

B3: mPD-1 mIgG2a (Fc fusion)
chain: LEVPNGPWRSLTFYPAWLTVSEGANATFTCSLSNWSEDLMLNWNRLSPSNQTEKQAAFCNGLSQPVQDARFQIIQLPNRHDFHMNILDTRRNDSGIYLCGAISLHPKAKIEESPGAELVVTERILETSTRYPSPSPKPEGRFQGM
EC50 (mPD-L1 Y56A mCherry): 1.9 nM | EC50 (mPD-L1 K124A mCherry): 42.9 nM | EC50 (mPD-L1 D49R mCherry): 1.8 nM | EC50 (WT mPD-L1 mCherry): 1.8 nM | EC50 (mPD-L1 G120D mCherry): 2.5 nM | EC50 (mPD-L1 G119D mCherry): 2 nM | EC50 (mPD-L1 R125A mCherry): 38.8 nM

B4: mPD-1 mIgG2a (Fc fusion)
chain: B3 chain
modifications: Cell-surface full-length mPD-L1 with a C-terminal mCherry (left out); limits are not given, so the mature chain 19-290 is used. The paper prints D28R, but residue 28 of Q9EP73 is Tyr. The only nearby Asp is D26, which lies at the PD-1 interface, so D28R is read as D26R. The paper's other PD-L1 numbers match the precursor numbering.
EC50 (D28R): 2.6 nM
